Assay results published in US20210388041A1 (NEXEL, published 2021).

Assays:
[1] = biological target: T1, integrin β3 (integrin αvβ3) (human, UniProt P05106 27-788; P06756 31-1048); experiment: proximity ligation assay in human HSCs
T1 construct: whole, on cells; The assays detect the β3 chain with an antibody; The legend speaks of integrin αvβ3 on HSCs; also called Integrin B3; integrin β3/β5
Procedure: (§1) For the PLA incorporation assay, human HSCs were seeded at 2×10⁴ cells per well on the 18 mm circular cover glass in 12-well plates and cultured for 24 hours. After serum starvation for 24 hours, the cells were treated with 10 ng/ml of TGF-β1 and/or 500 ng/ml of NP-011, and then, further incubated for 30 minutes. The PLA incorporation was accessed using the Duolink In Situ Red Starter Kit (Merck) according to the manufacturer's instructions. Digital images of PLA-positive cells were captured using a microscope (Nikon) and analyzed using ImageJ software <https://imagej.nih.gov/iy>.
(§2) It was investigated herein the mechanism of action for NP-011's rapid and effective suppression TGF-β signaling observed in diseased liver (FIGS. 1E and 2F). One day after administration of NP-011 in TAA-induced fibrotic liver, NP-011 preferentially bound to α-SMA-positive HSCs, and some of NP-011 interacted with macrophages in the liver (FIG. 6). Integrin αvβ3 and αvβ5 on the surface of HSCs have been previously implicated in regulating fibrosis. Additionally, the crosstalk between integrin and TGF-β signaling may be important in the regulation of pathological epithelial to mesenchymal transition (EMT) and myofibroblast differentiation. […] As a consequences of NP-011 treatment in TGF-β1-treated HSCs, the proliferative HSCs returned to quiescent status (FIG. 7D). […]

[2] = biological target: T2, integrin β5 (integrin αvβ5) (human, UniProt P18084 24-799; P06756 31-1048); experiment: proximity ligation assay in human HSCs
T2 construct: whole, on cells; The assays detect the β5 chain with an antibody; The legend speaks of integrin αvβ5 on HSCs; also called Integrin B5; integrin β3/β5
T2 sequence (P18084 24-799, chain 1 of 2): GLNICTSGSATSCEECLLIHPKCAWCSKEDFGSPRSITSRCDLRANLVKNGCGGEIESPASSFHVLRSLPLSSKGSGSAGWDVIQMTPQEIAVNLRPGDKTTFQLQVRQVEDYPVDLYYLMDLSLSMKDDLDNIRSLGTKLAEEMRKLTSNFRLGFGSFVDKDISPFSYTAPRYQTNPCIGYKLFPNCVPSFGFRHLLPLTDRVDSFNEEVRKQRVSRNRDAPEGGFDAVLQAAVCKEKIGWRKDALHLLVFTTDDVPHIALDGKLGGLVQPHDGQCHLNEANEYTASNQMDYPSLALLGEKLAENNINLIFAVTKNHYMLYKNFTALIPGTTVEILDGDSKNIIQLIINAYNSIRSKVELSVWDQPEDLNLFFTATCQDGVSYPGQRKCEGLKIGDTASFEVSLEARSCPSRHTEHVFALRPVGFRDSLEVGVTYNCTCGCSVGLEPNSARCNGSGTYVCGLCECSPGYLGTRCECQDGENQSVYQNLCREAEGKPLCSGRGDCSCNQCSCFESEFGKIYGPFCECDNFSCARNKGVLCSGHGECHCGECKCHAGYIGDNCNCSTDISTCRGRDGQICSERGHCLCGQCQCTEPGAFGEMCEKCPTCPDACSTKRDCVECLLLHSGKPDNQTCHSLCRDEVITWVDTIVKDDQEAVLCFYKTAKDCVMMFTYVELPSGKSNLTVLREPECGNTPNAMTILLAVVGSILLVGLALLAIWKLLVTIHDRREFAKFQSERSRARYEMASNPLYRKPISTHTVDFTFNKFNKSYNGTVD
T2 sequence (P06756 31-1048, chain 2 of 2): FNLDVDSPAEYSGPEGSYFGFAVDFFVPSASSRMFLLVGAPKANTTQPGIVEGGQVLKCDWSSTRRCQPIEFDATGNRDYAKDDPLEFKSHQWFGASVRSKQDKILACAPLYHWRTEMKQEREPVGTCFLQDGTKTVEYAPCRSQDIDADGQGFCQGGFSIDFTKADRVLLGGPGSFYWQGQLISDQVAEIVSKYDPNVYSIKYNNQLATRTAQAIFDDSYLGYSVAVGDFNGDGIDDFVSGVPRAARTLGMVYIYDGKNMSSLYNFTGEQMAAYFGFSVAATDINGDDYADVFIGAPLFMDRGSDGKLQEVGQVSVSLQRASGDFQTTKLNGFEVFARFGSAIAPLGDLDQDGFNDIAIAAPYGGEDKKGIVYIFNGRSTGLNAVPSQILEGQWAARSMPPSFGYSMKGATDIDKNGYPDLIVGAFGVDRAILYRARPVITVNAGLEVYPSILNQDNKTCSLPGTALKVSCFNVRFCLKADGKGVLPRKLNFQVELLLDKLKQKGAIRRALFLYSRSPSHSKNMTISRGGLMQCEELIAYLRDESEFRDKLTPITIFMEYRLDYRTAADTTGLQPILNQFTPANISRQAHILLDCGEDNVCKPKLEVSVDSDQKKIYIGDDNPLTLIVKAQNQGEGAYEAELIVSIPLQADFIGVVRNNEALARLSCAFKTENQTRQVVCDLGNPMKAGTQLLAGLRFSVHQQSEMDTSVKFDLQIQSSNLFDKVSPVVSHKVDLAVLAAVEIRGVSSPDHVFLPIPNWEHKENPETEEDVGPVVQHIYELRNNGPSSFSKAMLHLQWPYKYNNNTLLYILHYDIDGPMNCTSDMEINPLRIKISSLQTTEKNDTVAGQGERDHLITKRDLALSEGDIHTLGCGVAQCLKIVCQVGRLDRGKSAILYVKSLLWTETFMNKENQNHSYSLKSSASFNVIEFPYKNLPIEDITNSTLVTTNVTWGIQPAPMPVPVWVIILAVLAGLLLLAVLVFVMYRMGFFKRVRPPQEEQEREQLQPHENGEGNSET
Procedure: as §1, §2

T1 sequence (P05106 27-788, chain 1 of 2): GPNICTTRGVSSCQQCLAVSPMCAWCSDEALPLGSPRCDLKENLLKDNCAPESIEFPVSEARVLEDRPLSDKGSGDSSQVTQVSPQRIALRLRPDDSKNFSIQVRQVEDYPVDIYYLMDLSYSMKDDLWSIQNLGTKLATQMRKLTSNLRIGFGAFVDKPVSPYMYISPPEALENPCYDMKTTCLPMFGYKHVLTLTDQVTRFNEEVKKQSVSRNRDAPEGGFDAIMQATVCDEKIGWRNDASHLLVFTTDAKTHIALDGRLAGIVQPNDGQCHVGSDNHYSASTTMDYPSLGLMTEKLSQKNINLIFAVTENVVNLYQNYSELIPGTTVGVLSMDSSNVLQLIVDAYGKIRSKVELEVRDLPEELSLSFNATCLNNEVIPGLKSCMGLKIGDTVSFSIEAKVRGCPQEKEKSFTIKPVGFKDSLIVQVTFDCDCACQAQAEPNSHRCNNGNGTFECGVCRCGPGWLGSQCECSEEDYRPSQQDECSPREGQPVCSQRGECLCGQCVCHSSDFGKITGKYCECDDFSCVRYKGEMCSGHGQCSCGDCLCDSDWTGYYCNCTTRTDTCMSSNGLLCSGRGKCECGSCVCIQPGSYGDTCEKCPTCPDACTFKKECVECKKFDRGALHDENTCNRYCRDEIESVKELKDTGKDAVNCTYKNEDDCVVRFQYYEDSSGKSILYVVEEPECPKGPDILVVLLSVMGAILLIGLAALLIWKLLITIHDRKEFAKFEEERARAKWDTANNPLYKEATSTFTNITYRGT
T1 sequence (P06756 31-1048, chain 2 of 2): as the sequence (P06756 31-1048, chain 2 of 2) above

B1: TGF-β receptor 1 (TGFBRI) (receptor, human, UniProt P36897 34-503, looked up)
chain: LQCFCHLCTKDNFTCVTDGLCFVSVTETTDKVIHNSMCIAEIDLIPRDRPFVCAPSSKTGSVTTTYCCNQDHCNKIELPTTVKSSPGLGPVELAAVIAGPVCFVCISLMLMVYICHNRTVIHHRVPNEEDPSLDRPFISEGTTLKDLIYDMTTSGSGSGLPLLVQRTIARTIVLQESIGKGRFGEVWRGKWRGEEVAVKIFSSREERSWFREAEIYQTVMLRHENILGFIAADNKDNGTWTQLWLVSDYHEHGSLFDYLNRYTVTVEGMIKLALSTASGLAHLHMEIVGTQGKPAIAHRDLKSKNILVKKNGTCCIADLGLAVRHDSATDTIDIAPNHRVGTKRYMAPEVLDDSINMKHFESFKRADIYAMGLVFWEIARRCSIGGIHEDYQLPYYDLVPSDPSVEEMRKVVCEQKLRPNIPNRWQSCEALRVMAKIMRECWYANGAARLTALRIKKTLSQLSQQEGIKM
notes: whole, on cells; Endogenous protein of human HSCs; Detected in situ by PLA and pulled down from cell lysate with a TGFβRI antibody (Abcam ab31013); also called TGFβRI; TGFBR1
B1: binds [1]; binds [2].
